Data as given in article PMC12948240.

Key:
[1] = immunoblot, HEK293T; conditions: glycan lost; control: FOXK1 WT, PFOS-treated
[2] = PES1 IP, HA-Ub blot, MG132, HEK293T; conditions: glycan lost; control: FOXK1 WT, PFOS-treated
[3] = cycloheximide chase, PES1 immunoblot, HEK293T; conditions: glycan lost; control: FOXK1 WT

B1: forkhead box k1 (FOXK1): FOXK1 T573A (protein)
parent chain: MAEVGEDSGARALLALRSAPCSPVLCAAAAAAAFPATTSPPPPAQPPPGPPALPAEPGPGPVPSTVATATTTAPALVAAAAASVRQSPGPALARLEGREFEFLMRQPSVTIGRNSSQGSVDLSMGLSSFISRRHLQLSFQEPHFYLRCLGKNGVFVDGAFQRRGAPALQLPQQCTFRFPSTAIKIQFTSLYHKEEAPASPLRPLYPQISPLKIHIPEPDLRSLVSPIPSPTGTISVPNSCPASPRGAGSSSYRFVQNVTSDLQLAAEFAAKAASEQQADASGGDSPKDESKPPYSYAQLIVQAISSAQDRQLTLSGIYAHITKHYPYYRTADKGWQNSIRHNLSLNRYFIKVPRSQEEPGKGSFWRIDPASEAKLVEQAFRKRRQRGVSCFRTPFGPLSSRSAPASPTHPGLMSPRSSGLQTPECLSREGSPIPHDPDLGSKLASVPEYRYSQSAPGSPVSAQPVIMAVPPRPSNLVAKPVAYMPASIVTSQQPSGHAIHVVQQAPTVTMVRVVTTSANSANGYILASQGSTGTSHDTAGTAVLDLGNEARGLEEKPTIAFATIPAASRVIQTVASQMAPGVPGHTVTILQPATPVTIGQHHLPVRAVTQNGKHAVPTNSLTGNAYALSSPLQLLAAQASSSTPVVITRVCEVGPEEPAAAVSVAANAAPTPAASTTTSASSSGEPEVKRSRVEEPGGTATTQPTAMAATGPQGPGTGE
- other: PES1 protein level [1]: decreases
- other: PES1 ubiquitination [2]: increases
- other: PES1 degradation [3]: increases
